Experimental data published in paper PMC13379236 (Cell reports, 2026).
Numbering of substitutions follows the chain as printed. In names and notes the source's numbering stands. Entries after “also recorded” stand apart in the source; their conditions may differ.

B1: NLRP1 Gly/N-degron: C-terminal fragment generated by 3C cleavage, which exposes the Gly/N-degron, begins at glycine-131 (protein)
chain: GSERRVLRQLPDTSGRRWREISASLLYQALPSSPDHESPSQESPNAPTSTAVLGSWGSPPQPSLAPREQEAPGTQWPLDETSGIYYTEIREREREKSEKGRPPWAAVVGTPPQAHTSLQPHHHPWEPSVRESLCSTWPWKNEDFNQKFTQLLLLQRPHPRSQDPLVKRSWPDYVEENRGHLIEIRDLFGPGLDTQEPRIVILQGAAGIGKSTLARQVKEAWGRGQLYGDRFQHVFYFSCRELAQSKVVSLAELIGKDGTATPAPIRQILSRPERLLFILDGVDEPGWVLQEPSSELCLHWSQPQPADALLGSLLGKTILPEASFLITARTTALQNLIPSLEQARWVEVLGFSESSRKEYFYRYFTDERQAIRAFRLVKSNKELWALCLVPWVSWLACTCLMQQMKRKEKLTLTSKTTTTLCLHYLAQALQAQPLGPQLRDLCSLAAEGIWQKKTLFSPDDLRKHGLDGAIISTFLKMGILQEHPIPLSYSFIHLCFQEFFAAMSYVLEDEKGRGKHSNCIIDLEKTLEAYGIHGLFGASTTRFLLGLLSDEGEREMENIFHCRLSQGRNLMQWVPSLQLLLQPHSLESLHCLYETRNKTFLTQVMAHFEEMGMCVETDMELLVCTFCIKFSRHVKKLQLIEGRQHRSTWSPTMVVLFRWVPVTDAYWQILFSVLKVTRNLKELDLSGNSLSHSAVKSLCKTLRRPRCLLETLRLAGCGLTAEDCKDLAFGLRANQTLTELDLSFNVLTDAGAKHLCQRLRQPSCKLQRLQLVSCGLTSDCCQDLASVLSASPSLKELDLQQNNLDDVGVRLLCEGLRHPACKLIRLGLDQTTLSDEMRQELRALEQEKPQLLIFSRRKPSVMTPTEGLDTGEMSNSTSSLKRQRLGSERAASHVAQANLKLLDVSKIFPIAEIAEESSPEVVPVELLCVPSPASQGDLHTKPLGTDDDFWGPTGPVATEVVDKEKNLYRVHFPVAGSYRWPNTGLCFVMREAVTVEIEFCVWDQFLGEINPQHSWMVAGPLLDIKAEPGAVEAVHLPHFVALQGGHVDTSLFQMAHFKEEGMLLEKPARVELHHIVLENPSFSPLGVLLKMIHNALRFIPVTSVVLLYHRVHPEEVTFHLYLIPSDCSIRKAIDDLEMKFQFVRIHKPPPLTPLYMGCRYTVSGSGSGMLEILPKELELCYRSPGEDQLFSEFYVGHLGSGIRLQVKDKKDETLVWEALVKPGDLMPATTLIPPARIAVPSPLDAPQLLHFVDQYREQLIARVTSVEVVLDKLHGQVLSQEQYERVLAENTRPSQMRKLFSLSQSWDRKCKDGLYQALKETHPHLIMELWEKGSKKGLLPLSS
B2: E133K: E133K mutation of NLRP1 (residue E3 of the Gly/N-degron) (protein)
chain: B1 chain with E3K

Tested on: ZYG11B
Format: cell-based, human

| Molecule | binding to ZYG11B Extended Surface I mutants | binding to ZYG11B Gly-pocket mutants | binding to ZYG11B R466A (Extended Surface II) | interaction of NLRP1 mutants with ZYG11B |
| --- | --- | --- | --- | --- |
| B1 | decreases the binding | abolishes the binding | relatively strong reduction |  |
| B2 |  |  |  | decreases the interaction; also recorded: reduced binding to ZYG11B |
